From US20230002466A1 (ELPIS BIOPHARMACEUTICALS, published 2023)

Key:
human IL2Rβ [1] = target: T1, human IL2Rβ (human, UniProt P14784 27-239); assay: SPR, IL2Rβ captured on Protein A chip
T1 construct: also called IL2β; CD122
T1 sequence (looked up): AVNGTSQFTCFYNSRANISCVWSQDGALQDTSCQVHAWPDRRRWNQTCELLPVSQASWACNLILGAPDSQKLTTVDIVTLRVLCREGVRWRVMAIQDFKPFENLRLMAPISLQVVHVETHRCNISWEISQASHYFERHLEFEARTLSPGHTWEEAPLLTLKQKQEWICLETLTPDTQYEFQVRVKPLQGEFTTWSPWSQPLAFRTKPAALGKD
Method: The assay was run with Biacore T200 control software version 2.0. For each cycle, 1 ug/mL of human IL2Rβ was captured for 60 seconds at flow rate of 10 uL/min on flow cell 2 in 1×HBSP buffer on Protein A sensor chip. 100 nM of HIS and Flag tag purified each IL2 mutant was 2-fold serial diluted and injected onto both reference flow cell 1 and IL2Rβ captured flow cell 2 for 150 seconds at flow rate of 30 uL/min followed by washing for 300 seconds. The flow cells were then regenerated with Glycine pH2 for 60 seconds at a flow rate of 30 uL/min. The assay was set up with 8 serial diluted concentration points in 96-well format. The kinetics data was analyzed with Biacore T200 evaluation software 3.0. The specific binding response unit was derived from subtraction of binding to reference flow cell 1 from target flow cell 2 (FIGS. 16A-16F, Table 10).

[2] = target: T2, human IL2Rβ Fc fusion protein (human, UniProt P14784 27-239); assay: ELISA, receptor-Fc coated, anti-Flag HRP
T2 construct: also called Recombinant Fc-tagged human IL2Rβ; not shown: Fc
T2 sequence (looked up): T1 sequence (looked up)
Procedure, shortened: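 Plates coated overnight at 4 C with IL2Rα or IL2Rβ Fc fusion at 2 ug/mL, then blocked. Flag-tagged IL2 mutant dilutions were added in duplicate, and binding was detected with anti-Flag HRP (1:5000) and TMB for 5 min. EC50 was fitted from OD450.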

[3] = target: T2, human IL2Rβ Fc fusion protein; assay: ELISA, Fc-tagged receptor coated, anti-HisTag-HRP
Procedure, shortened: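 IL2 mutants, diluted from 1000 nM to 0 nM, were incubated 2 h at RT on plates coated overnight at 4 °C with Fc-tagged human IL2Rα (or IL2Rβ). Bound protein detected with anti-HisTag-HRP (1:5000, 1 h) and TMB. Absorbance read at 450 nm after acid stop.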

human IL2Rβ [4] = target: T1, human IL2Rβ; assay: SPR, receptor captured on Protein A chip, E. coli-produced IL2
human IL2Rβ [5] = target: T1, human IL2Rβ; assay: SPR, receptor captured on Protein A chip, mammalian-produced IL2
Method: The assay was run with Biacore T200 control software version 2.0. For each cycle, 1 μg/mL of human IL2Rβ or IL2Rα was captured for 60 seconds at flow rate of 10 μL/min on flow cell 2 in 1×HBST buffer on Protein A sensor chip. Two-fold serial diluted HIS tag purified engineered IL2 mutant was injected onto both reference flow cell 1 and IL2Rβ or IL2Rα captured flow cell 2 for 150 seconds at flow rate of 30 μL/min followed by washing for 300 seconds. The flow cells were then regenerated with Glycine pH 2 for 40 seconds at a flow rate of 30 μL/mins. Eight concentration points from 0 to 100 nM were assayed for each IL2Rβ agonist clone 96-well plate format. The kinetics data was analyzed with Biacore T200 evaluation software 3000. The specific binding response unit was derived from subtraction of binding to reference flow cell 1 from target flow cell 2.

[6] = target: T3, human IL2Rα Fc fusion protein (human, UniProt P01589 22-213, limits assumed); assay: ELISA, receptor-Fc coated, anti-Flag HRP; Table 9 ELISA: titration 100 nM to 0 nM, anti-Flag HRP detection
T3 construct: also called Recombinant Fc-tagged human IL2Rα; not shown: Fc
T3 sequence (looked up): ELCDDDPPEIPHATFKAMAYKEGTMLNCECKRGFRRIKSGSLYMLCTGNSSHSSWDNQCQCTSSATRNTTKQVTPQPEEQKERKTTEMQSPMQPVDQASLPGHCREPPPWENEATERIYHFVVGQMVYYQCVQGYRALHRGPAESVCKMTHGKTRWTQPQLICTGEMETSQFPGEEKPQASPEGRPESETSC
Method: Briefly, 384 well plate was immobilized with human IL2Rα and IL2Rβ Fc fusion proteins at a final concentration of 2 ug/mL in 1×PBS in total volume of 25 uL per well. The plate was incubated overnight at 4 C and blocked with 80 uL of superblock per well for 1 hour. […] Each dilution was added to IL2Rα or IL2Rβ wells in parallel in duplicates. The IL2 mutant binding was detected by adding 25 uL of anti-Flag HRP diluted at 1:5000 in 1×PBST. In between each step, the plate was washed three times with 1×PBST using a plate washer. The plate was then developed with 25 uL of TMB substrate for five minutes and stopped by adding 25 ul of 2N sulfuric acid. The plate was read at OD450 nm Biotek plate reader and the EC50 was analyzed with Prism 8.1 software to generate EC50 values (FIG. 15A for IL2Rα, and FIG. 15B for IL2Rβ, summarized in Table 9).

B1: EP001 (ligand)
chain: APTSSSTKKTQLQLEHLLLDLQMILNGINNYKNPKLTRMLTFKFYMPKKATELKHLQCLEEELKPLEEVLNLAQSKNFHLTARDAVDNMRVIIQELKGSETTFMCEYADETATIVEFLNRWITFCQSIISTLT
notes: Produced in E. coli or mammalian cells; also called EP0001; not shown: C-terminal Flag and 6xHis tags
Kd (human IL2Rβ [1]): 1.52 nM | koff (human IL2Rβ [1]): 0.00589 s⁻¹ | kon (human IL2Rβ [1]): 3.86e+06 M⁻¹ s⁻¹ | EC50 [2]: 0.7 nM | EC50 [3]: 8.1 nM | Kd (human IL2Rβ [4]): 1.12 nM | koff (human IL2Rβ [4]): 0.00365 s⁻¹ | kon (human IL2Rβ [4]): 3.26e+06 M⁻¹ s⁻¹ | relative activity IL2Rβ (KD: fold) against WT IL2 (human IL2Rβ [4]): 3890 fold | Kd (human IL2Rβ [5]): 0.743 nM | koff (human IL2Rβ [5]): 0.00417 s⁻¹ | kon (human IL2Rβ [5]): 5.61e+06 M⁻¹ s⁻¹ | relative activity IL2Rβ (KD: fold) against WT IL2 (human IL2Rβ [5]): 1360 fold | EC50 [6]: 259 nM
